Reference: publication PMC1635251

What follows are binders tested against T1, HIV-1 reverse transcriptase p66/p51 (HIV-1, UniProt P03366;P03366 600-1159;600-1039) (assay: filter binding).
UCGUG (ssRNA) [Hex-S3R pentamer, 3'-shortened]: no binding. CGUGU (ssRNA) [Hex-S3R pentamer, 5'-shortened]: no binding.

Biological target: T1, HIV-1 reverse transcriptase p66/p51
Experiment: filter binding
Remark: another data set of the same source
UCGUGU (ssRNA) [Hex-S3R] was tested, and the Kd was 5.3 ± 0.5 µM.

Biological target: T1, HIV-1 reverse transcriptase p66/p51
Experiment: filter binding
Remark: another data set of the same source
For CGACCG (XNA, phosphorothioate) [Hex-S1D-PS], the binding signal was 18.3 ± 6 relative binding (unit not printed). For CGACCG (XNA, fully 2'-OMe) [Hex-S1D-2'OMe], the binding signal was 0.5 ± 0.1 relative binding (unit not printed). With TCGTGT (XNA, LNA at position 1) [Hex-S3D-LNA] the binding signal was 4.3 ± 0.4 relative binding (unit not printed). For CGACCG (ssDNA) [Hex-S1D], the binding signal was 5.8 ± 0.6 relative binding (unit not printed). For UCGUGU (XNA, 4-thio-U at position 4) [4-thioU-Hex-S3R], the binding signal was 9.8 ± 0.5 relative binding (unit not printed). TCGTGT (XNA, fully 2'-OMe) [Hex-S3D-2'OMe] was tested, and the binding signal was 2 ± 0.1 relative binding (unit not printed). With TCGTGT (XNA, phosphorothioate) [Hex-S3D-PS] the binding signal was 52.8 ± 9.8 relative binding (unit not printed). TCGTGT (ssDNA) [Hex-S3D] was tested, and the binding signal was 8.1 ± 1 relative binding (unit not printed).

The binders below were run against HIV-2 reverse transcriptase (HIV-2, UniProt P04584;P04584 613-1171;613-1051) (assay: filter binding).
HIV-2 reverse transcriptase, sequence (P04584 613-1171, chain 1 of 2): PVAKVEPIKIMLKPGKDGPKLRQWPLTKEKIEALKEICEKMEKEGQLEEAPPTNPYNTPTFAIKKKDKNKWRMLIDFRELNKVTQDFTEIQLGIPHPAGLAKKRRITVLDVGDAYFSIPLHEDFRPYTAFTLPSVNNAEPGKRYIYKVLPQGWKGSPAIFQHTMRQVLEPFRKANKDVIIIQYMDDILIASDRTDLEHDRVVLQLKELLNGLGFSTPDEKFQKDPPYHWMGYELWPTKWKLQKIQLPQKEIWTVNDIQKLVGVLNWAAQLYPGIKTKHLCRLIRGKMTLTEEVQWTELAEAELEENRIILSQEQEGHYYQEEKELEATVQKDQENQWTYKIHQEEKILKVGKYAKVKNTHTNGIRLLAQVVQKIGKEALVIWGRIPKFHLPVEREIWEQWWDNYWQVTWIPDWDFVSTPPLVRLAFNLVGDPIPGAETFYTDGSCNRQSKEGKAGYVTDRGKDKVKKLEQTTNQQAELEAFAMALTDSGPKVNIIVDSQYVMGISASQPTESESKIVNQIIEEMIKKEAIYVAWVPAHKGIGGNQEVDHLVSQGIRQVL
HIV-2 reverse transcriptase, sequence (P04584 613-1051, chain 2 of 2): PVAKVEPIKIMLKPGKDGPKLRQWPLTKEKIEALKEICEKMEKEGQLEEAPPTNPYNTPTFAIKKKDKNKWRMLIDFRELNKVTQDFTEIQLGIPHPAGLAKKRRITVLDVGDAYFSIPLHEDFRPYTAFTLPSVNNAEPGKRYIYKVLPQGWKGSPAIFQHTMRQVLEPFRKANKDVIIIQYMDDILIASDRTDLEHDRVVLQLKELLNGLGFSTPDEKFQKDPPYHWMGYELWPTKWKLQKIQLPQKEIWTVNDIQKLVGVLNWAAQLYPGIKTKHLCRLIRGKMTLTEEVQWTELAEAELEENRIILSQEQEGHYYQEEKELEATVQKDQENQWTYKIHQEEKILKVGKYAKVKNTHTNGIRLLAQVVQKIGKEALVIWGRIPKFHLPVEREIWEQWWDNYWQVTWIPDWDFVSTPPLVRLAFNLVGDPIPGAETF
For CGACCG (XNA, phosphorothioate) [Hex-S1D-PS], the binding signal was 6.6 ± 1.7 relative binding (unit not printed). With TCGTGT (XNA, phosphorothioate) [Hex-S3D-PS] the binding signal was 24.9 ± 3.6 relative binding (unit not printed).
